Data on three molecules can be found in US10442868B2, “Treating hepatitis B virus infections by administering receptor associated protein (RAP)” (Rhode Island Hospital, A Lifespan-Partner, priority 2013, dated 2019).

Experiment [1] has as its system differentiated HepaRG cells. The experiment in a line: Killing of differentiated HepaRG cells by LRP-utilizing toxin, trypan blue staining. Format: cell-based, human. The conditions noted are these: 500 ng/ml, 37° C. overnight, low dose. As for the experimental part:
Hepatocytes are polarized. LRP is distributed at the basolateral side rather than apical side of hepatocytes (Marzolo et al., Traffic 4:273-88, 2003) consistent with HBV infection from the bloodstream. It was recently reported that HBV preferentially infects hepatocytes near the edge of hepatocyte islands (Schulze et al., Hepatology 55:373-83, 2012). […] Differentiated HepaRG cells were untreated (left panel) or incubated with pseudomonas exotoxin A (500 ng/ml) at 37° C. overnight (right panel), and stained with 0.04% trypan blue to reveal dead (blue) cells under microscopy. The dead cells were mainly located at the periphery of hepatocyte islands, which are also most susceptible to HBV infection.

The subject of the next experiment is HBV. Description: HBV infection of differentiated HepaRG cells with RAP or GST-RAP, secreted HBsAg by ELISA. Type of experiment: cell-based. To be noted: overnight with HBV inoculum and increasing concentrations, HBsAg measured 10 days later. The procedure:
Differentiated HepaRG cells (4×10^4), which are susceptible to HBV infection (Gripon et al., Proc Natl Acad Sci USA 99:15655-60, 2002), were incubated overnight with HBV inoculum in the presence or absence of increasing concentrations of RAP or GST-RAP, and washed extensively to remove unbound HBV virions and HBsAg. Medium was changed every 2-3 days. HBsAg level in culture supernatant was measured 10 days later (at this point there was no more residual HBsAg from the inoculum, and signals detected reflect newly synthesized and secreted proteins). The level of HBsAg secreted into the culture supernatant was determined by an ELISA assay using a commercially available kit (e.g., Novus Biologicals, NEO BioLab, Cusabio Biotech Co., Ltd.). Briefly, culture medium was added to wells containing capture antibody (anti-HBsAg), followed by incubation at 37° C. for 30 min. After washing with provided washing buffer, conjugate (anti-HBsAg conjugated with HRP) was added followed by incubation at 37° C. for 30 min.
A general note: ELISA stands for enzyme-linked immunosorbent assay.

B1: Pseudomonas exotoxin (protein)
chain: AEEAFDLWNECAKACVLDLKDGVRSSRMSVDPAIADTNGQGVLHYSMVLEGGNDALKLAIDNALSITSDGLTIRLEGGVEPNKPVRYSYTRQARGSWSLNWLVPIGHEKPSNIKVFIHELNAGNQLSHMSPIYTIEMGDELLAKLARDATFFVRAHESNEMQPTLAISHAGVSVVMAQAQPRREKRWSEWASGKVLCLLDPLDGVYNYLAQQRCNLDDTWEGKIYRVLAGNPAKHDLDIKPTVISHRLHFPEGGSLAALTAHQACHLPLETFTRHRQPRGWEQLEQCGYPVQRLVALYLAARLSWNQVDQVIRNALASPGSGGDLGEAIREQPEQARLALTLAAAESERFVRQGTGNDEAGAASADVVSLTCPVAAGECAGPADSGDALLERNYPTGAEFLGDGGDISFSTRGTQNWTVERLLQAHRQLEERGYVFVGYHGTFLEAAQSIVFGGVRARSQDLDAIWRGFYIAGDPALAYGYAQDQEPDARGRIRNGALLRVYVPRSSLPGFYRTGLTLAAPEAAGEVERLIGHPLPLRLDAITGPEEEGGRLETILGWPLAERTVVIPSAIPTDPRNVGGDLDPSSIPDKEQAISALPDYASQPGKPPREDLK
As for B1, the “cell killing (trypan blue dead cells)” value in experiment [1] is “selectively killed cells in the periphery of hepatocyte islands”.

B2: GST-RAP: GST fusion form of RAP tested in HepaRG HBV infection (protein)
chain: YSREKNQPKPSPKRESGEEFRMEKLNQLWEKAQRLHLPPVRLAELHADLKIQERDELAWKKLKLDGLDEDGEKEARLIRNLNVILAKYGLDGKKDARQVTSNSLSGTQEDGLDDPRLEKLWHKAKTSGKFSGEELDKLWREFLHHKEKVHEYNVLLETLSRTEEIHENVISPSDLSDIKGSVLHSRHTELKEKLRSINQGLDRLRRVSHQGYSTEAEFEEPRVIDLWDLAQSANLTDKELEAFREELKHFEAKIEKHNHYQKQLEIAHEKLRHAESVGDGERVSRSREKHALLEGRTKELGYTVKKHLQDLSGRISRARHNEL
modifications: left off: a dimerising Fc or GST
notes: GST fusion form of RAP tested in HepaRG HBV infection
As to B2, the “HBsAg secretion to culture supernatant (HBV infectivity)” value in the experiment with HBV is reported as “dose-dependent reduction of HBsAg secretion”.

B3: RAP: Receptor associated protein, chaperone binding LRP and other LDLR family members; universal inhibitor of the LDLR protein family (SEQ ID NO:6) (protein)
chain: MAPRRVRSFLRGLPALLLLLLFLGPWPAASHGGKYSREKNQPKPSPKRESGEEFRMEKLNQLWEKAQRLHLPPVRLAELHADLKIQERDELAWKKLKLDGLDEDGEKEARLIRNLNVILAKYGLDGKKDARQVTSNSLSGTQEDGLDDPRLEKLWHKAKTSGKFSGEELDKLWREFLHHKEKVHEYNVLLETLSRTEEIHENVISPSDLSDIKGSVLHSRHTELKEKLRSINQGLDRLRRVSHQGYSTEAEFEEPRVIDLWDLAQSANLTDKELEAFREELKHFEAKIEKHNHYQKQLEIAHEKLRHAESVGDGERVSRSREKHALLEGRTKELGYTVKKHLQDLSGRISRARHNEL
modifications: human receptor associated protein (RAP)
Regarding B3, the “HBsAg secretion to culture supernatant (HBV infectivity)” value in the experiment with HBV is listed as “dose-dependent reduction of HBsAg secretion”.
